According to patent publication US20250288652A1, “BACTERIOPHAGE LYSINE, CHIMERA THEREOF AND APPLICATION THEREOF” (priority 2021, published 2025):
Several values for one entry are separate records, joined by “and”; a condition that tells them apart may be missing. Identical values can stand only once.

Columns and labels:
Propionibacterium acnes [1] = assay: Minimum inhibitory concentration (MIC) determination, Example 6; assay type: cell-based; settings: listed as #10
Protocol: (§1) The minimal inhibitory concentration (MIC) determination method is as follows. First prepare a colony suspension in 0.9% saline to an OD600 of 0.05 to prepare an inoculum, which corresponds to 10^7 colony-forming units per mL (cfu/mL). The suspension was diluted 20 times in agar-free enhanced Clostridium medium (RCM) to an inoculum of 5*10^5 cfu/mL. Prepare 2-fold serial dilutions of PACL10 or vancomycin with 0.9% saline and add no more than one-tenth of the total culture. Cultures were grown anaerobically at 37° C. for 3 days. The MIC is the lowest concentration of PACL10 or vancomycin at which no growth of P. acnes can be observed with the naked eye. The minimum bactericidal concentration (MBC) was determined by subculturing the above cultures on enhanced Clostridium agar (RCA) plates containing 0.1% Tween-80. MBC is the lowest concentration of PACL10 or vancomycin at which no P. acnes colonies are seen on the enhanced Clostridium agar (RCA) plate.

Propionibacterium acnes [2] = assay: MIC of selected lysin after single-step purification, Example 8; assay type: cell-based; settings: single-step purified lysin
Protocol: Express PACL 10, 390, 391, 392, 403 and 404 according to the method of Examples 1-4, and perform the following single-step purification: put Escherichia coli BL21 (DE3) containing each recombinant expression plasmid in the self-induction medium incubate at 37° C., 300 rpm for 3 hours, then at 18° C., 300 rpm for 16-18 hours. Cells were collected by centrifugation and lysed by homogenizatoin under high pressure. Clarified lysate from 1 L of E. coli culture medium expressing the protein of interest was loaded onto a 26 mm/200 mm column containing 70 mL of purification resin. The lysin was purified according to the conditions in Table 8-1, and the purity determination of the lyase after single-step purification is shown in FIG. 5. These lysin are used to determine the minimal inhibitory concentration (MIC).
The minimal inhibitory concentration (MIC) determination method is as follows. Propionibacterium acnes is streaked on Fortified Clostridium Agar (Fortified Clostridium Medium RCM with 1.5% agar, RCM was prepared according to the revised recipe, per liter—10 g acid hydrolyzed casein, 10 g beef extract, 3 g yeast extract, 5 g D—glucose, 5 g sodium chloride, 3 g sodium acetate, 0.5 g L-cysteine hydrochloride). Plates were incubated anaerobically at 37° C. for 72 hours. The inoculum for MIC determination was first prepared by resuspending single clones from RCA in 0.9% saline to an OD600 of 0.05, corresponding to 10^7 colony-forming units per milliliter (cfu/mL). The suspension was diluted 20-fold in RCM to an inoculum of 5*10^5 cfu/mL. Two-fold serial dilutions of each lyase were prepared in 0.9% saline and added not to exceed one-tenth of the total culture volume. Cultures were grown anaerobically at 37° C. for 48-72 hours. The MIC is the lowest concentration of lyase at which no growth of P. acnes can be observed with the naked eye.

Propionibacterium acnes [3] = assay: Minimum bactericidal concentration (MBC) determination, Example 6; assay type: cell-based; settings: listed as #10
Protocol: as §1

P. acnes 34A strain = assay: Time sterilization (time killing) test; assay type: cell-based, Propionibacterium acnes; settings: 50 mM sodium phosphate pH 6.0
Protocol: The time sterilization test method is as follows. Resuspend the P. acnes 34A strain colony in 0.9% saline to an OD600 of 0.05, which corresponds to 10^7 cfu/mL. The suspension was diluted 10-fold in 50 mM sodium phosphate (pH 6.0) to ˜10^6 cfu/mL. Add 0, 0.5×, 1×, 2× MIC of two-fold serial dilutions of PACL10 to the 34A strain, respectively. Ten-fold serial dilutions (0, 1, 2, 3 log) from the assay were plated on enhanced Clostridium agar (RCA) at each time point and incubated anaerobically at 37° C. for 3 days.

[4] = test system: biofilm-associated P. acnes strain 10; assay: Killing of biofilm-associated P. acnes (CFU count); assay type: cell-based, Propionibacterium acnes; settings: strain 10 biofilm, treated overnight at 25° C. under anaerobic conditions
Protocol: Strain 10 with an OD600 of 1.0 was added to a 96-well polystyrene plate to inoculate the biofilm overnight in an anaerobic gas mixture. The supernatant was removed and the wells were gently rinsed with 0.9% NaCl. Biofilm formation medium (RCM+5% glucose) was added to allow biofilm growth overnight in the anaerobic gas mixture. The medium was removed and the wells were gently rinsed with 0.9% NaCl. Biofilms were then treated with buffer or PACL403 overnight at 25° C. under anaerobic conditions. The buffer or PACL403 was removed and the wells were rinsed with 0.9% NaCl. Resuspend in 0.9% NaCl, plate on RCM agar and count biofilm-associated CFU.

B1: PACL10: phage lysin, amino acid sequence SEQ ID NO: 10; 29.4 kDa (protein)
chain: MTFIQAAHHSSGSNLPPTRVVIHATCPELGFPRASAKGRAVSTARYFQSAISGGSAHYVVDVGETVQCLAEDVIAWHAPPNSRSLGIEICADGGSATSFKNPNVRYSRAQWLSPQVWPAVLRAAALTRQMCQKYGIPVTKLSASDLKAGKKGICGHVDVSNAWHQSDHDDPGPDFPWAEFMAAVKGGATNPDELELTVSQFSDLTKRLQGMQEQTHHDLGVVQTKLATMDTVKNPRTGAKWSLKDAIWSIWYYVLENRDRIAALEKKVK
modifications: PACL10
notes: 29.4 kDa
For B1, the MIC (Propionibacterium acnes [1]; clade IA1, strain 1) was 6.4 μg/mL and 0.218 μM, the MIC (Propionibacterium acnes [1]; clade IA1, strain 5) was 12.8 μg/mL and 0.436 μM and the MIC (Propionibacterium acnes [1]; clade IA1, strain 7) was 6.4 μg/mL and 0.218 μM. The MIC (Propionibacterium acnes [1]; clade IA1, strain 15) was 6.4 μg/mL and 0.218 μM, the MIC (Propionibacterium acnes [1]; clade IA1, strain 27) was 12.8 μg/mL and 0.436 μM and the MIC (Propionibacterium acnes [1]; clade IA2, strain 10) was 6.4 μg/mL and 0.218 μM. The MIC (Propionibacterium acnes [1]; clade IA2, strain 14) was 6.4 μg/mL and 0.218 μM, the MIC (Propionibacterium acnes [1]; clade IA2, strain 17) was 6.4 μg/mL and 0.218 μM and the MIC (Propionibacterium acnes [1]; clade IA2, strain 31) was 12.8 μg/mL and 0.436 μM. The MIC (Propionibacterium acnes [1]; clade IA2, strain 33A) was 12.8 μg/mL and 0.436 μM, the MIC (Propionibacterium acnes [1]; clade IB, strain 13) was 12.8 μg/mL and 0.436 μM and the MIC (Propionibacterium acnes [1]; clade II, strain 34A) was 6.4 μg/mL and 0.218 μM. The “MIC of selected lyases relative to Propionibacterium acnes” value (Propionibacterium acnes [2]; clade IA1, strain 1) was 8 µg/mL, the “MIC of selected lyases relative to Propionibacterium acnes” value (Propionibacterium acnes [2]; clade IA1, strain 5) was 8 µg/mL and the “MIC of selected lyases relative to Propionibacterium acnes” value (Propionibacterium acnes [2]; clade IA1, strain 7) was 8 µg/mL. The “MIC of selected lyases relative to Propionibacterium acnes” value (Propionibacterium acnes [2]; clade IA2, strain 10) was 8 µg/mL, the “MIC of selected lyases relative to Propionibacterium acnes” value (Propionibacterium acnes [2]; clade IA2, strain 17) was 8 µg/mL and the “MIC of selected lyases relative to Propionibacterium acnes” value (Propionibacterium acnes [2]; clade IA2, strain 33) was 8 µg/mL. For the same molecule, the “MIC of selected lyases relative to Propionibacterium acnes” value (Propionibacterium acnes [2]; clade II, strain 34) was 8 µg/mL, the MBC (Propionibacterium acnes [3]; clade IA1, strain 1) was 25.6 μg/mL and 0.871 μM and the MBC (Propionibacterium acnes [3]; clade IA1, strain 5) was 12.8 μg/mL and 0.436 μM. For the same molecule, the MBC (Propionibacterium acnes [3]; clade IA1, strain 7) was 12.8 μg/mL and 0.436 μM, the MBC (Propionibacterium acnes [3]; clade IA1, strain 15) was 25.6 μg/mL and 0.871 μM and the MBC (Propionibacterium acnes [3]; clade IA1, strain 27) was >25.6 μg/mL and >0.871 μM. The MBC (Propionibacterium acnes [3]; clade IA2, strain 10) was 12.8 μg/mL and 0.436 μM, the MBC (Propionibacterium acnes [3]; clade IA2, strain 14) was >25.6 μg/mL and >0.871 μM and the MBC (Propionibacterium acnes [3]; clade IA2, strain 17) was 25.6 μg/mL and 0.871 μM. The MBC (Propionibacterium acnes [3]; clade IA2, strain 31) was >25.6 μg/mL and >0.871 μM, the MBC (Propionibacterium acnes [3]; clade IA2, strain 33A) was >25.6 μg/mL and >0.871 μM and the MBC (Propionibacterium acnes [3]; clade IB, strain 13) was 25.6 μg/mL and 0.871 μM. For the same molecule, the MBC (Propionibacterium acnes [3]; clade II, strain 34A) was 6.4 μg/mL and 0.218 μM, the “time for cfu/mL to drop below the detection limit” value (P. acnes 34A strain; at 2× MIC 12.8 μg/mL) was ≤ 2 h and the “time for cfu/mL to drop below the detection limit” value (P. acnes 34A strain; at MIC 6.4 μg/mL) was ≤ 3 h.

B2: PACL403: chimeric lysin, amino acid sequence SEQ ID NO: 271 (protein)
chain: MTFIQAKHHGGHNNPPVTRLVIHATCPDVGYPSASRAGRAVSTAHYFQETTRPASAHYICDISTTVQCLSEETVGYHAPPNSHSIGIEICADGGSHASFSNPAHAYTREQWLSPQVWPAVERAAMLARGICQRHNIPIRRLSIADVKAGKRGICGHNEVSEAFHQSDHDDPGPYFPWDGFIALVNGHSAPSRQEELTVSDGGEVRTPGQQDTKPSVPTPSLTEIGDQDMNGCYYNLNSKTRTYLIFDSRSGFYHEFSQGNGNGPMSPDYVNPIAKGWDTGSWPAISPGHAKVLKAALDKVRKGI
modifications: PACL403
In the case of B2, the “MIC of selected lyases relative to Propionibacterium acnes” value (Propionibacterium acnes [2]; clade IA1, strain 1) is reported as 16 µg/mL, the “MIC of selected lyases relative to Propionibacterium acnes” value (Propionibacterium acnes [2]; clade IA1, strain 5) is reported as 16 µg/mL and the “MIC of selected lyases relative to Propionibacterium acnes” value (Propionibacterium acnes [2]; clade IA1, strain 7) is reported as 16 µg/mL. For the same molecule, the “MIC of selected lyases relative to Propionibacterium acnes” value (Propionibacterium acnes [2]; clade IA2, strain 10) was 8 µg/mL, the “MIC of selected lyases relative to Propionibacterium acnes” value (Propionibacterium acnes [2]; clade IA2, strain 17) was 8 µg/mL and the “MIC of selected lyases relative to Propionibacterium acnes” value (Propionibacterium acnes [2]; clade IA2, strain 33) was 8 µg/mL. For the same molecule, the “MIC of selected lyases relative to Propionibacterium acnes” value (Propionibacterium acnes [2]; clade II, strain 34) was 16 µg/mL and the “bactericidal activity against biofilm-associated P. acnes” value [4] was “killed biofilm-associated P. acnes”.
